Assay results from US11857601B2, “Pharmaceutical composition for cancer treatment comprising fusion protein including IL-2 protein and CD80 protein and anticancer drug” (GI INNOVATION, INC., priority 2020, dated 2024).

B1: GI102-M61: hCD80-Fc-IL-2 variant (3M) (R38A, F42A, E61R); SEQ ID NO: 28 (protein)
chain: VIHVTKEVKEVATLSCGHNVSVEELAQTRIYWQKEKKMVLTMMSGDMNIWPEYKNRTIFDITNNLSIVILALRPSDEGTYECVVLKYEKDAFKREHLAEVTLSVKADFPTPSISDFEIPTSNIRRIICSTSGGFPEPHLSWLENGEELNAINTTVSQDPETELYAVSSKLDFNMTTNHSFMCLIKYGHLRVNQTFNWNTTKQEHFPDNGSGGGGSGGGGSGGGGSAESKYGPPCPPCPAPEAAGGPSVFLFPPKPKDQLMISRTPEVTCVVVDVSQEDPEVQFNWYVDGVEVHNAKTKPREEQFNSTYRVVSVLTVLHQDWLNGKEYKCKVSNKGLPSSIEKTISKAKGQPREPQVYTLPPSQEEMTKNQVSLTCLVKGFYPSDIAVEWESNGQPENNYKTTPPVLDSDGSFFLYSRLTVDKSRWQEGNVFSCSVLHEALHNHYTQKSLSLSLGGGGGSAPTSSSTKKTQLQLEHLLLDLQMILNGINNYKNPKLTAMLTAKFYMPKKATELKHLQCLERELKPLEEVLNLAQSKNFHLRPRDLISNINVIVLELKGSETTFMCEYADETATIVEFLNRWITFCQSIISTLT
modifications: Sequence of fusion protein (GI102-M61)
B2: mGI102-M61: mCD80-Fc-IL-2 variant (3M) (R38A, F42A, E61R); SEQ ID NO: 34 (protein)
chain: MDAMLRGLCCVLLLCGAVFVSPSHAVDEQLSKSVKDKVLLPCRYNSPHEDESEDRIYWQKHDKVVLSVIAGKLKVWPEYKNRTLYDNTTYSLIILGLVLSDRGTYSCVVQKKERGTYEVKHLALVKLSIKADFSTPNITESGNPSADTKRITCFASGGFPKPRFSWLENGRELPGINTTISQDPESELYTISSQLDFNTTRNHTIKCLIKYGDAHVSEDFTWEKPPEDPPDSGSGGGGSGGGGSGGGGSAESKYGPPCPPCPAPEAAGGPSVFLFPPKPKDQLMISRTPEVTCVVVDVSQEDPEVQFNWYVDGVEVHNAKTKPREEQFNSTYRVVSVLTVLHQDWLNGKEYKCKVSNKGLPSSIEKTISKAKGQPREPQVYTLPPSQEEMTKNQVSLTCLVKGFYPSDIAVEWESNGQPENNYKTTPPVLDSDGSFFLYSRLTVDKSRWQEGNVFSCSVLHEALHNHYTQKSLSLSLGGGGGSAPTSSSTKKTQLQLEHLLLDLQMILNGINNYKNPKLTAMLTAKFYMPKKATELKHLQCLERELKPLEEVLNLAQSKNFHLRPRDLISNINVIVLELKGSETTFMCEYADETATIVEFLNRWITFCQSIISTLT
modifications: Sequence of fusion protein (mGI102-M61)
B3: GI101C1: comparative fusion protein: human CD80 fragment, Ig hinge, Fc domain; SEQ ID NO: 17 (protein)
chain: VIHVTKEVKEVATLSCGHNVSVEELAQTRIYWQKEKKMVLTMMSGDMNIWPEYKNRTIFDITNNLSIVILALRPSDEGTYECVVLKYEKDAFKREHLAEVTLSVKADFPTPSISDFEIPTSNIRRIICSTSGGFPEPHLSWLENGEELNAINTTVSQDPETELYAVSSKLDFNMTTNHSFMCLIKYGHLRVNQTFNWNTTKQEHFPDNGSGGGGSGGGGSGGGGSAESKYGPPCPPCPAPEAAGGPSVFLFPPKPKDQLMISRTPEVTCVVVDVSQEDPEVQFNWYVDGVEVHNAKTKPREEQFNSTYRVVSVLTVLHQDWLNGKEYKCKVSNKGLPSSIEKTISKAKGQPREPQVYTLPPSQEEMTKNQVSLTCLVKGFYPSDIAVEWESNGQPENNYKTTPPVLDSDGSFFLYSRLTVDKSRWQEGNVFSCSVLHEALHNHYTQKSLSLSLG
modifications: Sequence of fusion protein (GI101C1)

What was measured:
[1] = tested on: CD8+ T cells and CD4+/FoxP3+ Treg cells; assay: Proliferation of CD8+ T cells and Treg cells in PBMCs (Exp. Ex. 10); format: cell-based, human; conditions: for proliferation of CD4+/FoxP3+ Treg cells: compared with no stimulus and anti-CD3 antibody alone
Description: Human PBMCs were purchased from Allcells (Lot #3014928, USA). […] CellTrace CFSE dye was used, which was reacted with the human PBMCs under a light-blocking condition at […] for 20 minutes. The cells were labeled with CFSE by being reacted with 1 μM CellTrace CFSE dye at 37° C. for 20 minutes. CFSE not bound to the cells was removed by being reacted for 5 minutes with a culture medium having a 5-fold volume of the staining reaction solution and then by being centrifuged at 1,300 rpm for 5 minutes. The CFSE-labeled PBMCs were resuspended in the culture medium (RPMI1640 medium containing 10% fetal bovine serum, 10 mM HEPES, 100 U/ml penicillin/streptomycin, 1 mM sodium pyruvate, 55 μM 2-mercaptoethanol, 1 mM non-essential amino acid, and 2 mM L-glutamine), and then added to a 96-well microplate at 1×10^5 cells per well.
The incubated cells were examined for their degree of proliferation by measuring, with FACS analysis using anti-human CD4-PE antibody (BioLegend, USA), anti-human CD8-PE/Cy7 antibody (BioLegend, USA), and anti-human FoxP3-APC antibody (BioLegend, USA), a proportion of CD8+ T cells that had not been labeled with CFSE.

[2] = tested on: effector CD8+ T cells, NK cells, Treg cells; assay: Effect on mouse immune cells in spleen; format: in vivo, C57BL/6 mice; conditions: vs PBS
Description: On days 1, 3, 5, 7, and 14 after the injection, the spleen tissues were removed from the mice of each group. Thereafter, for the spleen tissue, the numbers of effector CD8+ T cells, NK cells, and Treg cells were calculated with FACS analysis using respective antibodies, and proportions of effector CD8+ T cells and NK cells with respect to Treg cells were respectively calculated. The information on the antibodies used in each cell analysis is as follows:
Effector CD8+ T cell: PB anti-mouse CD3ε antibody (Biolegend, #155612; KT3.1.1), FITC anti-mouse CD8α antibody (BD, #553031, 53-6.7), PE/Cy7 anti-mouse CD44 antibody (Biolegend, #103030; IM7), APC anti-mouse CD122 antibody (Biolegend, #123214; TM-β1)
NK cell: PB anti-mouse CD3ε antibody (Biolegend, #155612; KT3.1.1), PE anti-mouse NK-1.1 (Biolegend, #108708; PK136)
Treg cell: FITC anti-mouse CD3 antibody (Biolegend, #100204; 17A2), PB anti-mouse CD4 antibody (Biolegend, #100531; RM4-5), PE anti-mouse CD25 antibody (Biolegend, #102008; PC61), APC anti-mouse Foxp3 antibody (Invitrogen, #FJK-16s, 17-5773-82).

CT26 cancer cell line = assay: mGI102-M61 in mice transplanted with CT26 (Exp. Ex. 18); format: in vivo, BALB/c mice; conditions: 12 mg/kg i.v.
Description: The tumor size was measured daily.

Molecule	proportion of CD8+ T cells ([1]; anti-CD3ε 1 μg/ml, 7 days, compared with no stimulus, anti-CD3 antibody alone and GI101C1)	proliferation of CD4+/FoxP3+ Treg cells [1]	proportions of activated CD8+ T cells/Treg cells and NK cells/Treg cells ([2]; 3rd to 7th days after administration)	numbers of CD8+ T cells and NK cells ([2]; 3rd to 14th days after i.v. administration (3, 6 or 12 mg/kg))	survival rate (CT26 cancer cell line; vs negative control)	Tumor growth inhibition (CT26 cancer cell line; vs negative control (hIgG4))
B1	significant increase	did not exhibit a significant increase	–	–	–	–
B2	–	–	significant increase	significant increase	significant improvement	significant tumor growth inhibition
B3	–	did not exhibit a significant increase	–	–	–	–
